The numbers were not newly measured in patent US20220257789A1, “ANTI-TISSUE FACTOR ANTIBODY-DRUG CONJUGATES AND RELATED METHODS” (Iconic Therapeutics, Inc., priority 2019, published 2022), which cites them from elsewhere.

For one series, the target named is T1, mTF (Mus musculus, UniProt P20352).
T1 sequence (P20352 29-294): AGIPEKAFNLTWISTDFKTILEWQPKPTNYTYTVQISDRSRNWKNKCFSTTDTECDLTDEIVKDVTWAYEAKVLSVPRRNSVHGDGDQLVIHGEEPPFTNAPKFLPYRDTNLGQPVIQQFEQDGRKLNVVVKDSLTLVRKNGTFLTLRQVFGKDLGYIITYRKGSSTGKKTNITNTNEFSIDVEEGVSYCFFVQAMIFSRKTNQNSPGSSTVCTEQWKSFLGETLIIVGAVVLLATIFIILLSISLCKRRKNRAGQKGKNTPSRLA
Particulars: binds when a KD value can be measured on a ForteBio Octet.

Like-named read-outs stand apart in the source and are kept apart here.

With “tisotumab vedotin: anti-TF fully human monoclonal antibody conjugated to MMAE with a protease-cleavable linker (Genmab)”, the dose limiting toxicities entry (6 mg/kg) was “grade 4 neutropenia and severe skin irritation and skin ulceration”. Further, the toxicity result by setting is: (dose of 2.2 mg/kg (de Bono et al. 2019)) “dose limiting toxicity (e.g., neutropenia)”; (dose of 3 mg/kg) “Neutropenia and skin toxicity”. Where the note is “in vivo”, the “ALT and AST” value is “transient ALT and AST elevations”.
As for “humanized 5G9: humanized 5G9 anti-TF antibody described in Ngo et al., 2007; VH SEQ ID NO: 830, VL SEQ ID NO: 831”, the “binding to mouse TF” value with mTF is “do not bind to mouse TF”.
